Results as given in patent publication US20250163169.

Assays:
[1] = system: 43-mer covering the stalk region of CD95L (residue 103 to residue 145)
43-mer covering the stalk region of CD95L (residue 103 to residue 145), sequence (chain, as listed by the source): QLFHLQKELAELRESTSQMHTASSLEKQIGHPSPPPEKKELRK

MMP3, sequence (chain, as listed by the source): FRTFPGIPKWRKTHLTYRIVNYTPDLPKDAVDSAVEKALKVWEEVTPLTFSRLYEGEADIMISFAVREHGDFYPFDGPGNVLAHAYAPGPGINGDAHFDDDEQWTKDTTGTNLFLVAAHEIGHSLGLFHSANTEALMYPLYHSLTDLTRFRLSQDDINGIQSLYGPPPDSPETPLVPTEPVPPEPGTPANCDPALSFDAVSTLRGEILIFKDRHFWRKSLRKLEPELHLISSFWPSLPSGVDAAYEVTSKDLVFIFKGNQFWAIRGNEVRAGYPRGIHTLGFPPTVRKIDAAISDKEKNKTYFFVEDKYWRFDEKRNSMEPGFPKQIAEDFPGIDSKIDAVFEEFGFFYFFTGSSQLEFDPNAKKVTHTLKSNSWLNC
Recombinant Ig-CD95L, sequence (chain, as listed by the source): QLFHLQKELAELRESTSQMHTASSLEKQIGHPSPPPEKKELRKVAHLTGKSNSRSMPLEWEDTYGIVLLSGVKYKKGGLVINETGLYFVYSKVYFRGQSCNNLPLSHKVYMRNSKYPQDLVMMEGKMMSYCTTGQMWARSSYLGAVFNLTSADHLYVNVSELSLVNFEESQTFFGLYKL

MMP3
cleavage of Ig-CD95L (western blotting) (Recombinant Ig-CD95L): Using this Ig-CD95L, we showed that MMP2 and MMP3 can cleave CD95L | percentage of degradation of the 43-mer (LC-MS/MS) [1]: more of 20% of cleavage
